What all share (experiment): fluorescence anisotropy; 5 mM Mg2+; Anisotropy: 50 mM Tris/HCl pH 7.5, 150 mM NaCl, 5 mM MgCl2 (Fig 2), 25 C, 50 nM RNA; EMSA: same Tris/NaCl, 12% glycerol, 25 C; NMR: 25 mM Bis-Tris/HCl pH 6.0, 50 mM NaCl, 10% D2O, 37 C
Common to all, as to conditions: protein: recombinant; label: 5'-fluorescein; hairpin with 5' single strand
(Polarisation of emitted light reports the rotation of a fluorescent probe.)

Data set [1] deals with T1, Hera_RBD A452C (Thermus thermophilus, UniProt O07897 424-510, A452C).
T1 sequence: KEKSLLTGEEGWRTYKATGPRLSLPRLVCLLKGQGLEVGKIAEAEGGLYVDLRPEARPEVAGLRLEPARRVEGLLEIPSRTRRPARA

Data set [2] addresses T2, Hera_RBD S446C (Thermus thermophilus, UniProt O07897 424-510, S446C).
T2 sequence: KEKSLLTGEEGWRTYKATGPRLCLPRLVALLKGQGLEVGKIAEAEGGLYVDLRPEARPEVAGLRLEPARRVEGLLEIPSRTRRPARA

Data set [3] has as its target T3, Hera_RBD R492A (Thermus thermophilus, UniProt O07897 424-510, R492A).
T3 sequence: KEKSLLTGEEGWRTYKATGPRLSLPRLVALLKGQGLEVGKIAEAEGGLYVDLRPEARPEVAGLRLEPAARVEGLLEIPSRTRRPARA

The target of data set [4] is T4, Hera_RBD K455A (Thermus thermophilus, UniProt O07897 424-510, K455A).
T4 sequence: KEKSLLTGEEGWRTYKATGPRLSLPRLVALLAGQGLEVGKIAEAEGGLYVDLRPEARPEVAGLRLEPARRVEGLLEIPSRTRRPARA

The target of data set [5] is T5, Hera_RBD R487A (Thermus thermophilus, UniProt O07897 424-510, R487A).
T5 sequence: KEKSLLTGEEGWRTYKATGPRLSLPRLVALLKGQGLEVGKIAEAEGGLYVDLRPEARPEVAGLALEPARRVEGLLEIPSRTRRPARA

The target in data set [6] is T6, Hera_RBD R444A/R449A (Thermus thermophilus, UniProt O07897 424-510, R444A;R449A).
T6 sequence: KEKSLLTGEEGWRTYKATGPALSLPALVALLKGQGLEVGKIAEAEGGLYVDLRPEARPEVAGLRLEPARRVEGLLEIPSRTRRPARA

In data set [7] the target is T7, Hera_RBD Q457C (Thermus thermophilus, UniProt O07897 424-510, Q457C).
T7 sequence: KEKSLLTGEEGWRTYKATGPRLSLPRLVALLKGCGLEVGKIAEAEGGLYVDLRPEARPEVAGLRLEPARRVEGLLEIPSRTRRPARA

The target in data set [8] is T8, Hera_RBD R449A (Thermus thermophilus, UniProt O07897 424-510, R449A).
T8 sequence: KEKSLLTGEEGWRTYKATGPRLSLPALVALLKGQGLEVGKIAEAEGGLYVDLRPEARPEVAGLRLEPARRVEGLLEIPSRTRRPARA

For data set [9], the target named is T9, Hera_RBD K439A (Thermus thermophilus, UniProt O07897 424-510, K439A).
T9 sequence: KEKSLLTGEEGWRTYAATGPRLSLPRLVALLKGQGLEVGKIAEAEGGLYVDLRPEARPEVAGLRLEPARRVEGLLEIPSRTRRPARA

The text below walks through data of article PMC3695512, “Recognition of two distinct elements in the RNA substrate by the RNA-binding domain of the T. thermophilus DEAD box helicase Hera”.

Bounds are passed on as bounds.

B1: 32mer (structured_RNA)
RNA: GCAGGUCCCAAGGGUUGGGCUGUUCGCCCAUU
For B1, the binding signal is about 10 fold Kd increase in data set [1]; under 5 fold Kd increase in data set [2]; under 5 fold Kd increase in [3]; under 5 fold Kd increase in data set [4]; under 5 fold Kd increase in [5]; over 25 fold Kd increase in [6]. Besides, the binding signal in data set [7] was under 5 fold Kd increase; in data set [8], over 25 fold Kd increase; in data set [9] it was under 5 fold Kd increase.
